Legend:
OBu-AGPAIR = tested on: T1, OBu-AGPAIR
T1 sequence: AGPAIR

Pyr-AAAVK = tested on: T2, Pyr-AAAVK
T2 sequence: AAAVK

Pyr-AAIV = tested on: T3, Pyr-AAIV
T3 sequence: AAIV

Pyr-AAI = tested on: T4, Pyr-AAI
T4 sequence: AAI

Pyr-AA = tested on: T5, Pyr-AA
T5 sequence: AA

Pyr-APVLA = tested on: T6, Pyr-APVLA
T6 sequence: APVLA

Pyr-A = tested on: T7, Pyr-A
T7 sequence: A

Pyr-LGPAIK = tested on: T8, Pyr-LGPAIK
T8 sequence: LGPAIK

modified CylLS [1] = biological target: modified CylLS
modified CylLS [2] = test: Kinetic analysis of full length CylA and CylA-96-412 against modified CylLS (LC/MS); assay type: biochemical, Enterococcus faecalis
Protocol: Targeted peptides were dissolved in H2O to a final concentration of 3 mg/mL. To a 85 μL solution of peptides, 10 μL of 500 mM HEPES buffer (pH 7.5) was added followed by 5 μL of 0.5 mg/mL AspN protease (for modified CylLL and CylLS peptides), 0.1 mg/mL CylA protease (for modified and unmodified CylLL, CylLS peptides, and modified HalA2-GDVQAE peptide) or 0.1 mg/mL LicP protease (for LicA2). For cleavage tests of the engineered GDVQAE peptides, CylA was added to a final concentration of 0.01 mg/mL, whereas the peptide was added to a concentration of 0.3 mg/mL with 50 mM HEPES buffer (pH 7.5). The protease cleavage reaction mixtures were kept at 25° C. for 1 to 48 h. Osmotic pressure was adjusted with NaCl solution with a final concentration of 150 mM. The digested peptide mixture was directly used for antimicrobial and hemolytic assay. For the kinetic analysis of CylA and its mutant proteins, His6-CylA-27-412 and His6-CylA-27-412-E95A proteins were added to a final concentration of 500 ng/mL and 2.5 μg/mL (22 nM and 110 nM), respectively, with modified CylLS supplied at a concentration of 0.3 mg/mL (36 μM). The reactions were allowed to proceed at room temperature and were stopped by 1% TFA at different time points for LC/MS analysis. Halα and Halβ were obtained by factor Xa cleavage of modified HalA1Xa and HalA2 Xa peptides using the procedure of Y. Shi, et al. J. Am. Chem. Soc. 2011, 133, 2338. CylLL″ and CylLS″ were prepared in the same way using modified CylLL-E-1K and CylLS-E-1K peptides as described in W. Tang and W. A. van der Donk, Nat. Chem. Biol. 2013, 9, 157.
As full length CylA is not available due to its self-cleavage, His6-CylA-27-412-E95A was chosen to serve as a substituent of full length CylA as the self-cleavage was abolished whereas the conserved catalytic C-terminal region of CylA remained unchanged. To obtain the mature protease CylA-96-412, His6-CylA-27-412 was aged at 4° C. for 12 hours to allow the self-cleavage to proceed until CylA-96-412 was the dominant peak monitored by MALDI-TOF MS. The aged protein mixture was directly used as a substituent of CylA-96-412. To test the proteases' activities, CylA-96-412 and His6-CylA-27-412-E95A were supplied with a final concentration of 22 nM and 110 nM, respectively, with modified CylLS served at a concentration of 36 μM. The reactions were stopped at 3 minute, 6 minute, 12 minute and 24 minute by 1% TFA and the formation of mature CylLS″ was monitored by liquid chromatography MS (LC/MS). […] The production of core peptide was analyzed by extracted ion chromatography monitoring the desired product mass 1017 (M+2H^+).

CylA = CylA self-cleavage (SDS-PAGE, MALDI-TOF MS); assay type: biochemical, Enterococcus faecalis
Protocol: E. coli BL21 (DE3) cells were transformed with pRSFDuet-1/CylA-27-412, pRSFDuet-1/CylA-27-412-E95A, pRSFDuet-1/CylA-27-412-S359A or pRSFDuet-1/LicP-25-433 vectors and plated on an LB plate containing 50 mg/L kanamycin. A single colony was picked and grown in 20 mL of LB with kanamycin at 37° C. for 12 h and the resulting culture was inoculated into 2 L of LB. Cells were cultured at 37° C. until the OD at 600 nm reached 0.5, cooled and IPTG was added to a final concentration of 0.1 mM. The cells were cultured at 18° C. for another 10 h before harvesting. The cell pellet was resuspended on ice in LanP start buffer (20 mM HEPES, 1 M NaCl, pH 7.5 at 25° C.) and lysed by homogenization. The lysed sample was centrifuged at 23,700×g for 30 min and the pellet was discarded. The supernatant was passed through 0.45-μm syringe filters and the protein was purified by immobilized metal affinity chromatography (IMAC) loaded with nickel as described in B. Li et al. Methods Enzymol. 2009, 458, 533. […] Protein concentration was quantified by its absorbance at 280 nm. The extinction coefficient for His6-CylA-27-412, His6-CylA-27-412-E95A and His6-CylA-27-412-S359A was calculated as 30,830 M^−1 cm^−1. The extinction coefficient for His6-LicP-25-433 was calculated as 46,300 M^−1 cm^−1. […]

[3] = biological target: T9, LanA3 encoded by the genome of B. cereus VD156
T9 chain: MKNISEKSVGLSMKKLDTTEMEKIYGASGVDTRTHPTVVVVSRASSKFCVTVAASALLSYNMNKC

[4] = biological target: dehydrated and cyclized LanA2 from B. licheniformis 9945A

## His6-ElxO
Glx-AAIVK
  Relative (kcat/Km): < 0.01
  kcat/Km (reduction by His6-ElxO, NADPH absorbance at 340 nm): < 0.03 M⁻¹ s⁻¹
OBu-AGPAIR
  reduction by His6-ElxO with NADPH, LC-MS: All the peptides were reduced as confirmed by LC-MS analysis
Obu-AAIVK
  Relative (kcat/Km): 0.38
  kcat/Km (reduction by His6-ElxO, NADPH absorbance at 340 nm): 0.92 M⁻¹ s⁻¹
Obu-RAIVK
  Relative (kcat/Km): 0.62
  kcat/Km (reduction by His6-ElxO, NADPH absorbance at 340 nm): 1.51 M⁻¹ s⁻¹
Pyr-AAAVK
  Relative (kcat/Km): 0.12
  kcat/Km (reduction by His6-ElxO, NADPH absorbance at 340 nm): 0.29 M⁻¹ s⁻¹
Pyr-AAIAK
  Relative (kcat/Km): 0.65
  kcat/Km (reduction by His6-ElxO, NADPH absorbance at 340 nm): 1.59 M⁻¹ s⁻¹
Pyr-AAIVA
  Relative (kcat/Km): 0.55
  kcat/Km (reduction by His6-ElxO, NADPH absorbance at 340 nm): 1.33 M⁻¹ s⁻¹
Pyr-AAIVKBBIKAAKK
  Relative (kcat/Km): 5.83
  kcat/Km (reduction by His6-ElxO, NADPH absorbance at 340 nm): 14.2 M⁻¹ s⁻¹
Pyr-AAIVK
  Relative (kcat/Km): 1
  kcat/Km (reduction by His6-ElxO, NADPH absorbance at 340 nm): 2.43 M⁻¹ s⁻¹
Pyr-AAIV
  Relative (kcat/Km): 0.47
  kcat/Km (reduction by His6-ElxO, NADPH absorbance at 340 nm): 1.13 M⁻¹ s⁻¹
Pyr-AAI
  Relative (kcat/Km): 0.02
  kcat/Km (reduction by His6-ElxO, NADPH absorbance at 340 nm): 0.06 M⁻¹ s⁻¹
Pyr-AAVLK
  reduction by His6-ElxO with NADPH: His6-ElxO reduced both peptides
Pyr-AA
  Relative (kcat/Km): < 0.01
  kcat/Km (reduction by His6-ElxO, NADPH absorbance at 340 nm): < 0.03 M⁻¹ s⁻¹
Pyr-APVLA
  reduction by His6-ElxO with NADPH, LC-MS: All the peptides were reduced as confirmed by LC-MS analysis
Pyr-A
  Relative (kcat/Km): < 0.01
  kcat/Km (reduction by His6-ElxO, NADPH absorbance at 340 nm): < 0.03 M⁻¹ s⁻¹
Pyr-BPVLAAVAVAKKK
  reduction by His6-ElxO with NADPH, LC-MS: All the peptides were reduced as confirmed by LC-MS analysis
Pyr-DAIVK
  Relative (kcat/Km): 0.12
  kcat/Km (reduction by His6-ElxO, NADPH absorbance at 340 nm): 0.29 M⁻¹ s⁻¹
Pyr-KAIVK
  Relative (kcat/Km): 1.74
  kcat/Km (reduction by His6-ElxO, NADPH absorbance at 340 nm): 4.22 M⁻¹ s⁻¹
Pyr-LGPAIK
  reduction by His6-ElxO with NADPH: His6-ElxO reduced both peptides
Pyr-MAIVK
  Relative (kcat/Km): 6.4
  kcat/Km (reduction by His6-ElxO, NADPH absorbance at 340 nm): 15.5 M⁻¹ s⁻¹
Pyr-NAIVK
  Relative (kcat/Km): 3.13
  kcat/Km (reduction by His6-ElxO, NADPH absorbance at 340 nm): 7.6 M⁻¹ s⁻¹
Pyr-PAIVK
  Relative (kcat/Km): 0.05
  kcat/Km (reduction by His6-ElxO, NADPH absorbance at 340 nm): 0.13 M⁻¹ s⁻¹
Pyr-RAIVK
  Relative (kcat/Km): 2.26
  kcat/Km (reduction by His6-ElxO, NADPH absorbance at 340 nm): 5.5 M⁻¹ s⁻¹
Lactocin S
  reduction by His6-ElxO with NADPH, high-resolution LC-MS: confirming the formation of dihydrolactocin S

B1: His6-CylA-27-412-E95A (protein)
chain: MKRIYIFLLCFAVLLPVGGKTAQAKEQAGEQYLLLEHVKDKSKLLDTAEQFHIHADVIEEIGFAKVTGEKQKLAPFTKKLAEKVGADVIEKPIANTAVNETESVISGSPAWGLDGILELKEYLWFAAKQTDSYRTYQIERGHPDVKVALIDSGLDLDHPDLKASVNTNGGWNYIDGKPVSGDPTGHGTQTAGMINIIAPDVTITPYQVLDEKGGDSYNIMKAMVDAVNDGHEVINISTGSYTSLDREGKVLMKAYQRAANYAAKHQVLVFSSAGNKGVNLDEMRKTENKVHLPSALKHVVSVGSNMKSNNISPYSNQGREIEFTAPGGYLGETYDQDGMVRVTDLVLTTYPKGKDNTALDQMLNIPKGYSLSYGTSLAAPQVAGTAALVISEYRERHHRKPSAKQVHHILRKSALDLGKPGKDVIYGYGEVRAYQALKMMNKE
Modified CylLS [1]
  cleavage by His6-CylA-27-412-E95A: Incubation of modified CylLS with His6-CylA-27-412-E95A resulted in cleavage
  fold lower rate of producing CylLS″ than CylA-96-412 (LC/MS; 110 nM enzyme, 36 µM substrate): exhibited an approximate 10-fold lower rate of producing CylLS″
Modified CylLS [2]
  cleavage of modified CylLS: resulted in cleavage
Modified CylLS [2]; enzyme 110 nM, modified CylLS 36 μM, versus CylA-96-412
  lower rate of producing CylLS″: ~10 fold
CylA
  CylA self-cleavage during expression or purification: only one band corresponding to the full length protein

B2: LanP of B. cereus VD156 (without signal sequence, with His6 tag) (protein)
chain: MGSSHHHHHHSQDPTQIAYYSILIRDNTDFNTVLDKLSKDNQEVVYSIPEVNLIQVKGEKGKIISGIGLESIEEINPSTGEFKTYTPNINDQKVLDNKAIWDVQWDIKRITNNGESYKLHSPSGKVSVALIDSGYPENHPDIKSISIQKSKNLVPKGGYKGNEENETGNIHQLTDRTGHGTSVLSQVNADGLMKGVAPGMPVNMYRVFGESSAEGSWIIKGIIEAAKDKNDVINISAGSYLLKNGTYSDGSGNNRAEIKAYEKAIHYANKKGSIVVSALGNDSININIYSELLSILNSKIKDEGKSATGIVQDIPAQLAQVVSVASTGMDSKVSSFSNYGKNIIDFTAPGGDIKLLNKFGADVWMAEEMFKKEMILVAHPQGGYYFNYGNSLATPKVSGALALVIDKYGYKNKPNKAINHLKRNTNAENEIDLYKALQE
[3]
  cleavage by the corresponding LanP, MALDI-TOF MS: the core peptide is detected ... and the leader peptide is also observed

B3: LanP from B. licheniformis 9945A (without signal sequence, with His6 tag) (protein)
chain: MGSSHHHHHHSQDPDRYTIYLESPAHHDDWVKTLNERNIKLVYSVEEIGLYQIEGRQKEVQELAAEINYINSHNQSVAMQPASLHNTAPAEATIFGGTPTLWDDFQWDMRKATNNGQTYQITEGSKNTIVGIIDSGIDMNHPDLKENILSVRNFVPKGGLRGQEPYEKGDINDSTDYLGHGTFVAGQIAANGLMKGIAPETGIRSYRVFGGKSADTVWIIDAIIQAAIDDVDIINVSFGTFLVKQNRKNKQMPDTNDLAEIKAFKKAVSFAHKKGSAVVASIGNEGLDLKDKNAVFEYWRSTKQEDLSADGKVILIPAQLPNVVTVSSIGPSGMRSVFSNYGKNVVDIAADGGDLRLLNEVGEDRYYGEGLFRQEYILGAAPGVTYTFSIGTSIAAPKVSGALALLIDQKQLHDKPDKAVKILLKNADRNADKIDTGAGVLNVYRALTD
[4]
  cleavage by the corresponding LanP, MALDI-TOF MS: fully modified core peptide is observed after protease treatment (inset) ... the leader peptide is also observed

— patent US20240018501A1, “HIGHER PERFORMANCE PROTEASES FOR SCARLESS PEPTIDE TAG REMOVAL” (priority 2017, published 2024)
